Molecular target: FUS165-422 (RGG1-RRM-RGG2) (UniProt P35637 165-422)
Test: NMR 1H-15N HSQC chemical shift changes; 1:1 molar ratio; largest shifts near residues 286, 326, 369; 20 mM MES pH 6.5, 150 mM NaCl, RNase free; CW-EPR at room temperature; NMR temperature not given in the material
Conditions: protein: recombinant; tags: His-MBP tag removed by TEV; hairpin

Chain of FUS165-422 (RGG1-RRM-RGG2) (P35637 165-422): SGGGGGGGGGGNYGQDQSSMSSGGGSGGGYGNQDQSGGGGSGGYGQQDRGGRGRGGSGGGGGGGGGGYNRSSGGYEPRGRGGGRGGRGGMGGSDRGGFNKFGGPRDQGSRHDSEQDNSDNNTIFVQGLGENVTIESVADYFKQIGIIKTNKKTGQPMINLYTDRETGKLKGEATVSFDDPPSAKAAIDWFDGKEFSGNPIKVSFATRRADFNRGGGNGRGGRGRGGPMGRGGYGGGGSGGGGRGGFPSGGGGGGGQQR

Does GGCAGAUUACAAUUCUAUUUGCC (structured_RNA) [hnRNPA2/B1 stem-loop RNA] bind?
Result: binds

From article PMC7708983, “A combined NMR and EPR investigation on the effect of the disordered RGG regions in the structure and the activity of the RRM domain of FUS”
